The data set has as its system T1, PrpR (His6-PrpR) (Pseudomonas aeruginosa PAO1?), ORF:9118ca87.
T1 sequence: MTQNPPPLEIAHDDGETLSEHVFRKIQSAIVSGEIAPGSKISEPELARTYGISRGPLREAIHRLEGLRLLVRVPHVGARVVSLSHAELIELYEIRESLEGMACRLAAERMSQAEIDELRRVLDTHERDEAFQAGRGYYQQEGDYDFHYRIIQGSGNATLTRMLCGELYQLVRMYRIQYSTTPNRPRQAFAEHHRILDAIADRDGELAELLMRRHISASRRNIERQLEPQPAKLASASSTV
The data set can be described thus: EMSA. To be noted: 30 mM Tris-HCl pH 8.0, 120 mM KCl, 1 mM MnCl2, 1 mM MgCl2, 20% glycerol, 240 ug/mL BSA, 15.2 ug/mL poly(dI-dC), 21 C, 60 min; 6% PAGE in TBE. (In general: Mobility shift assays separate free from complexed probe on a gel.)

As to “CTGCTTCATCACGTCGCCCATGCCGCAGGCGAAGTCGATCAGGCGCGGCAACACGTAACGGTCATAGATGCCCACGAAACTCTCTCCTGGCACAGCGGCTGGAGGGGAAAGCATAGACCAGCGATGCATTAGACGATTGTCGACAATCAAGCGACGAATGATTGACCCCACGCAATCCAGGCGGTAGCTTTCGCAAACATTGTCGACACATCGACCCGGACAGCCAGTACCATGACCCAGAACCCGCCCCCTCTCGAGATTGCCCATGAC (double strand) [prpR promoter (prpRp)]”, the binding result is given as “binds”.

(Values after PMC9765439, “Systems-Wide Dissection of Organic Acid Assimilation in Pseudomonas aeruginosa Reveals a Novel Path To Underground Metabolism” (mBio, 2022).)
